Measurements reported in the Human Domainome abundance scans (Beltran et al. 2025).
± gives the uncertainty stated by the source.

B1: SAM and SH3 domain-containing protein 1, residues 630 to 700; numbered along this chain, O94885 (parent)
chain: GRPPQPKSVEDLLDRINLKEHMPTFLFNGYEDLDTFKLLEEEDLDELNIRDPEHRAVLLTAVELLQEYDSN

Variants of: B1
Experiment: abundance fitness (aPCA) (normalised: wild type 0, dead -1); higher = more abundant; growth selection in yeast, the domain comes from the species named
Conditions: Homo sapiens

| Variant | abundance fitness |
| --- | --- |
| L18A | -0.804 ± 0.064 |
| L18W | -0.853 ± 0.089 |
| L58F | -0.596 ± 0.099 |
| L58S | -0.516 ± 0.054 |
| L58W | -0.819 ± 0.11 |
| L58D | -0.347 ± 0.08 |
| D69Q | -0.262 ± 0.052 |
| D69G | -0.132 ± 0.056 |
| D69F | -0.811 ± 0.093 |
| R55A | -0.9 ± 0.082 |
| R55N | -0.891 ± 0.086 |
| R55V | -0.591 ± 0.057 |
| R55W | -1.14 ± 0.14 |
| R55E | -0.522 ± 0.081 |
| L59S | -0.514 ± 0.043 |
| L59A | -0.569 ± 0.053 |
| L59M | 0.001 ± 0.048 |
| L59W | -0.822 ± 0.079 |
| L59H | -0.564 ± 0.058 |
| L59K | -0.206 ± 0.057 |
| L59N | -0.491 ± 0.063 |
| L59V | -0.735 ± 0.058 |
| L59Q | -0.478 ± 0.071 |
| A56K | 0.265 ± 0.038 |

| Variant | abundance fitness |
| --- | --- |
| A56S | 0.011 ± 0.031 |
| A56T | -0.114 ± 0.035 |
| A56H | -0.057 ± 0.037 |
| A56W | -0.816 ± 0.086 |
| H21W | -0.248 ± 0.047 |
| H21N | -0.689 ± 0.071 |
| H21E | -0.689 ± 0.09 |
| H21M | -0.085 ± 0.046 |
| H21P | -0.798 ± 0.065 |
| H21I | -0.459 ± 0.056 |
| H21A | -0.85 ± 0.068 |
| T24N | -0.314 ± 0.051 |
| T24C | -0.474 ± 0.057 |
| T24V | -0.179 ± 0.041 |
| T24Q | -0.544 ± 0.064 |
| T24P | -0.88 ± 0.069 |
| E40G | 0.171 ± 0.044 |
| E40F | -1.01 ± 0.089 |
| E40R | 0.337 ± 0.035 |
| E40W | -0.933 ± 0.098 |
| F36W | -0.712 ± 0.089 |
| F36T | -0.64 ± 0.064 |
| F36Q | -0.705 ± 0.11 |
| F36K | -1.19 ± 0.14 |

| Variant | abundance fitness |
| --- | --- |
| N48R | -0.319 ± 0.08 |
| N48Q | -0.393 ± 0.13 |
| N48S | -0.388 ± 0.08 |
| N48C | -0.273 ± 0.12 |
| I16G | -0.674 ± 0.085 |
| I16Q | -0.682 ± 0.078 |
| I16N | -0.326 ± 0.067 |
| I16F | -0.266 ± 0.064 |
| F25I | -0.687 ± 0.081 |
| F25M | -0.676 ± 0.073 |
| F25Y | -0.893 ± 0.091 |
| F25T | -0.59 ± 0.061 |
| P4I | 0.058 ± 0.057 |
| P4Y | 0.067 ± 0.049 |
| P4D | 0.343 ± 0.055 |
| P4C | -0.088 ± 0.072 |
| P4N | 0.09 ± 0.05 |
| E42M | -0.476 ± 0.066 |
| E42V | -0.302 ± 0.046 |
| E42C | -0.222 ± 0.053 |
| E42I | -0.477 ± 0.055 |
| V9C | -0.892 ± 0.13 |
| V9D | -0.736 ± 0.089 |
| V9W | -1.05 ± 0.17 |

| Variant | abundance fitness |
| --- | --- |
| V9I | -0.235 ± 0.046 |
| V9H | -0.909 ± 0.079 |
| A61P | -0.731 ± 0.069 |
| A61Y | -0.609 ± 0.082 |
| A61D | -0.787 ± 0.099 |
| A61E | 0.074 ± 0.062 |
| A61C | -0.483 ± 0.073 |
| A61M | -0.324 ± 0.055 |
| A61I | -0.983 ± 0.11 |
| A61H | -0.497 ± 0.066 |
| R2F | -0.21 ± 0.066 |
| R2G | -0.509 ± 0.077 |
| R2L | -0.246 ± 0.054 |
| R2V | -0.472 ± 0.064 |
| R2M | -0.442 ± 0.06 |
| L12T | -0.829 ± 0.071 |
| L12P | -0.916 ± 0.093 |
| E41G | -0.465 ± 0.07 |
| E41A | -0.075 ± 0.048 |
| E41S | -0.34 ± 0.042 |
| E41F | -0.971 ± 0.091 |
| V62C | -0.241 ± 0.051 |
| V62E | -0.489 ± 0.1 |
| V62N | -0.578 ± 0.09 |

| Variant | abundance fitness |
| --- | --- |
| V62K | 0.005 ± 0.059 |
| V62T | -0.476 ± 0.062 |
| V62A | -0.091 ± 0.049 |
| V62F | -0.916 ± 0.1 |
| K37M | -0.16 ± 0.057 |
| K37C | -0.449 ± 0.072 |
| K37R | -0.211 ± 0.046 |
| K37H | -0.76 ± 0.086 |
| K37Y | -1.11 ± 0.12 |
| E63L | -0.587 ± 0.046 |
| E63Y | -0.687 ± 0.064 |
| E63G | -0.15 ± 0.042 |
| E63M | -0.492 ± 0.063 |
| E63D | -0.058 ± 0.044 |
| E63T | -0.226 ± 0.04 |
| E63S | 0.004 ± 0.034 |
| L47R | -0.922 ± 0.055 |
| L47K | -0.781 ± 0.1 |
| L47I | -0.671 ± 0.058 |
| E10S | -0.423 ± 0.046 |
| E10I | -0.446 ± 0.056 |
| E10K | -0.407 ± 0.066 |
| E10F | -0.443 ± 0.054 |
| R15D | -0.454 ± 0.065 |

| Variant | abundance fitness |
| --- | --- |
| R15Q | -0.017 ± 0.045 |
| R15V | -0.381 ± 0.046 |
| R50W | 0.003 ± 0.055 |
| P52Q | -0.424 ± 0.057 |
| P52L | -0.61 ± 0.042 |
| P52C | -0.565 ± 0.064 |
| P52S | -0.354 ± 0.039 |
| D45Q | -0.557 ± 0.059 |
| D45P | -0.833 ± 0.063 |
| D45Y | -0.496 ± 0.052 |
| D45V | -0.151 ± 0.041 |
| D45I | 0.037 ± 0.039 |
| D45M | -0.247 ± 0.051 |
| G1M | 0.013 ± 0.098 |
| G1Q | 0.109 ± 0.16 |
| G1N | 0.17 ± 0.082 |
| G1L | 0.036 ± 0.066 |
| G29H | -0.831 ± 0.081 |
| G29D | -0.837 ± 0.1 |
| G29E | -0.844 ± 0.1 |
| G29T | -0.917 ± 0.073 |
| L64N | 0.295 ± 0.041 |
| L64C | 0.019 ± 0.044 |
| N71Y | -0.132 ± 0.062 |

| Variant | abundance fitness |
| --- | --- |
| N71H | 0.056 ± 0.048 |
| N71C | -0.009 ± 0.12 |
| N71R | 0.087 ± 0.052 |
| N71Q | 0.121 ± 0.059 |
| N71P | 0.005 ± 0.051 |
| N71I | -0.117 ± 0.054 |
| L26T | -0.225 ± 0.043 |
| L26F | -0.167 ± 0.054 |
| L26D | -0.667 ± 0.089 |
| L26P | -0.825 ± 0.073 |
| L26G | -0.697 ± 0.06 |
| L44D | -0.819 ± 0.087 |
| L44F | -0.38 ± 0.061 |
| L44S | -0.875 ± 0.062 |
| L44H | -0.941 ± 0.1 |
| L44A | -0.779 ± 0.061 |
| H54S | -0.408 ± 0.04 |
| H54P | -0.733 ± 0.066 |
| Q5N | -0.113 ± 0.055 |
| Q5V | -0.149 ± 0.048 |
| Q5L | -0.345 ± 0.043 |
| Q5A | -0.291 ± 0.053 |
| Q5D | -0.783 ± 0.12 |
